Reference: US7049398B1, “Melanocortin metallopeptide constructs, combinatorial libraries and applications” (Palatin Technologies, Inc., priority 1999, dated 2006)
Where no end group is shown, it is not given here. [ ]: non-standard residue; d: D form. The star is where a group is joined. 2Nal = N[C@@H](Cc1ccc2ccccc2c1)C(=O)O; Hydrocinnamoyl = O=C(CCc1ccccc1)*; hPhe = N[C@@H](CCc1ccccc1)C(=O)O; Ac6c = NC1(C(=O)O)CCCCC1; Heptanoyl = CCCCCCC(=O)*; Nle = CCCC[C@H](N)C(=O)O; Inp = O=C(O)C1CCNCC1; βAla = NCCC(=O)O

What was measured:
hMC4-R = target: T1, hMC4-R (Homo sapiens, UniProt P32245); test: Competitive inhibition binding assay, 125I-NDP-alpha-MSH, hMC4-R membranes; details: 0.4 nM 125I-NDP-alpha-MSH
T1 construct: expressed in transfected cells; host or cells: 293 cells
Method: (§1) Representative Peptides of this Invention. Representative peptides of this invention were made using library and synthesis methods described herein, and selected peptides were tested using a binding assay. […] The peptides were synthesized using conventional peptide synthesis methods, and were complexed with rhenium using the methods described herein.
(§2) The competitive inhibition binding assay was conducted using membranes prepared from hMC4-R and B-16 mouse melanoma cells (containing MC1-R) using 0.4 nM ^125I-NDP-alpha-MSH (New England Nuclear, Boston, Mass., USA) in 50 mM HEPES buffer containing 1 mM MgCl2, 2 mM CaCl2, and 5 mM KCl, at pH 7.2. The assay tube also contained a chosen concentration of the test peptide of this invention, complexed to a rhenium metal ion as indicated, for determining its efficacy in inhibiting the binding of ^125I-NDP-alpha-MSH to its receptor. Non-specific binding was measured by complete inhibition of binding of ^125I-NDP-alpha-MSH in the assay with the presence of 1 μM alpha-MSH. Incubation was for 90 minutes at room temperature, after which the assay mixture was filtered and the membranes washed three times with ice cold buffer. The filter was dried and counted in a gamma counter for remaining radioactivity bound to the membranes. 100% specific binding was defined as the difference in radioactivity (cpm) bound to cell membranes in the absence and presence of 1 μM alpha-MSH. The cpm obtained in presence of test compounds were normalized with respect to 100% specific binding to determine the percent inhibition of ^125I-NDP-alpha MSH binding. […]

[1] = target: T2, MC1-R (B-16 mouse melanoma cells) (Mus musculus, UniProt Q01727); test: Competitive inhibition binding assay, 125I-NDP-alpha-MSH, B-16 mouse melanoma cell membranes; details: 0.4 nM 125I-NDP-alpha-MSH
T2 construct: B-16 mouse melanoma cells (containing MC1-R); endogenous in cells; host or cells: B-16 mouse melanoma cells
Method: as §1, §2

[2] = test system: Human MC4-R or B-16 cells; test: cAMP stimulation assay in absence and presence of alpha-MSH; type: cell-based, human; mouse; details: 1 h 37° C., 0.2 mM IBMX
Method: For selected peptides of this invention, a cAMP assay was also performed. Human MC4-R or B-16 cells were grown to confluence in 96 well plates (plating approximately 250,000 cells per well). Identical sets of cells in triplicate were treated with 0.2 mM isobutylmethylxanthine (IBMX) and the chosen concentration of the rhenium metal ion-complexed peptide and the rhenium metal ion-complexed peptide in the presence of 20 nM alpha-MSH. Cells similarly treated but with only 20 nM alpha-MSH served as positive control. A buffer blank, as a negative control, was also included. Incubation was for one hour at 37° C. after which the medium was aspirated and the cells extarted with 150 microliters of HCl. Total cAMP accumulated in 100 microliters of this solution was quantitated using a commercially available low pH cAMP assay kit (R&D Systems) by the procedure specified by the kit supplier. […] The rhenium metal ion-complexed peptide showing cAMP accumulation in the same range as or higher than the positive control (buffer blank in the presence of alpha-MSH) are considered to be agonist ligands. The rhenium metal ion-complexed peptide showing accumulation in the same range as the negative control (buffer blank in the absence of alpha-MSH) are ineffective at the test concentration if the result is similar to the positive control where alpha-MSH is also present in the assay. The rhenium metal ion-complexed peptide showing accumulation in the same range as the negative control are considered to be antagonists if there is inhibition in cAMP when alpha-MSH is present in the assay. Values above the positive control are due to potent agonism, experimental variance or synergistic agonistic effects of rhenium metal ion-complexed peptide and alpha-MSH. […]

[3] = Conc. cut off 10 μM, hMC4-R membranes
[4] = Conc. cut off 10 μM, B-16 mouse melanoma cell membranes
[5] = 10 μM test compound + 20 nM alpha-MSH
[6] = Conc. cut off 1 μM, hMC4-R membranes
[7] = Conc. cut off 1 μM, B-16 mouse melanoma cell membranes
[8] = 1 μM test compound + 20 nM alpha-MSH
[9] = Conc. cut off 1 μM test peptide
[10] = Conc. cut off 10 μM test peptide

T2 sequence (Q01727 whole entry): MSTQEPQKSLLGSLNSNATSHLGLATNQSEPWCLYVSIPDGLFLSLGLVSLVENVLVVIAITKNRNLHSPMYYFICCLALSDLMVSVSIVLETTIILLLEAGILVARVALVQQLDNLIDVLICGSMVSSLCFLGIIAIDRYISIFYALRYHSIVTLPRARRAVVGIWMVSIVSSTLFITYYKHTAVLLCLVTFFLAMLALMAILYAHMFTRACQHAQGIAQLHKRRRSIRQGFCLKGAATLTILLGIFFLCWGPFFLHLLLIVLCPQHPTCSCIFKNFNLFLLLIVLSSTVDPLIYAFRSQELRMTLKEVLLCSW
T1 sequence (P32245 whole entry): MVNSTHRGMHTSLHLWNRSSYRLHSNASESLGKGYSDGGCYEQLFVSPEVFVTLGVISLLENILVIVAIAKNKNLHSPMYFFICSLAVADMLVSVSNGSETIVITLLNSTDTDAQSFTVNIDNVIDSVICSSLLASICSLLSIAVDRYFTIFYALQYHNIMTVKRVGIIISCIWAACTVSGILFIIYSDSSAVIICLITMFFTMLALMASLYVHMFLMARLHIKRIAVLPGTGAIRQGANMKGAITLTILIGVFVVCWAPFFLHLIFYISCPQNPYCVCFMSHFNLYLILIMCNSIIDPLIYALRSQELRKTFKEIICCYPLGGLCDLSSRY

Substance | % Inhibition MC4-R (hMC4-R; [3]) | % Inhibition MC1-R (B-16) [1, 4] | % Inhibition MC4-R (hMC4-R; [6]) | % Inhibition MC1-R (B-16) [1, 7] | other results
PL-838: metallopeptide of Table 1 (Ac-HFRCW-NH2; also: ReO[V] metal complex) | 0% | 35% | – | – | cAMP Accumulation, Presence of α-MSH [2, 5]: 53 pmol/mL; cAMP Accumulation, Absence of α-MSH ([2]; 10 μM test compound): 2 pmol/mL
PL-1265: metallopeptide of Table 1 (Ac-EHGRWC-NH2; also: ReO[V] metal complex) | – | – | 67% | 34% | cAMP Accumulation, Presence of α-MSH [2, 8]: 127 pmol/mL; cAMP Accumulation, Absence of α-MSH ([2]; 1 μM test compound): 3 pmol/mL
PL-1842: metallopeptide of Table 1 (Ac-[Nle]AHRFWC-NH2; also: ReO[V] complex) | – | – | – | – | % Inhibition MC4-R (hMC4-R; [9]): 2%; % Inhibition MC1-R (B-16) [1, 9]: 27%; cAMP Accumulation, Presence of α-MSH [2, 8]: 76 pmol/mL; cAMP Accumulation, Absence of α-MSH ([2]; 1 μM test compound): 25 pmol/mL
PL-1346: metallopeptide of Table 1 (Hydrocinnamoyl-HRCW-NH2; also: ReO[V] metal complex) | 77% | 86% | – | – | cAMP Accumulation, Presence of α-MSH [2, 5]: 76 pmol/mL; cAMP Accumulation, Absence of α-MSH ([2]; 10 μM test compound): 3 pmol/mL
PL-1751: metallopeptide of Table 1 (Ac-HXRWC-NH2; not fully specified (residue 2); printed as Ac-L-His-L-(N-2′naphthalene)Phe-L-Arg-L-Trp-L-Cys-NH2; also: ReO[V] complex) | – | – | – | – | % Inhibition MC4-R (hMC4-R; [9]): 70%; % Inhibition MC1-R (B-16) [1, 9]: 78%; cAMP Accumulation, Presence of α-MSH [2, 8]: 96 pmol/mL; cAMP Accumulation, Absence of α-MSH ([2]; 1 μM test compound): 71 pmol/mL
PL-1621 (Ac-[Nle]AH[Ac6c]RCW-NH2; also: ReO[V] complex) | – | – | – | – | % Inhibition MC4-R (hMC4-R; [9]): 34%; % Inhibition MC1-R (B-16) [1, 9]: 36%
PL-809 (Ac-H[hPhe]CW-NH2; also: ReO[V] complex) | – | – | 0% | −4% | –
PL-1309 (Heptanoyl-CRCW-NH2; cysteine pairing not given here; also: ReO[V] metal complex) | – | – | 10% | 9% | –
PL-1860 (Ac-FFC[Inp]K-NH2; also: ReO[V] complex) | – | – | – | – | % Inhibition MC4-R (hMC4-R; [9]): 0%; % Inhibition MC1-R (B-16) [1, 9]: 6%
PL-1110 (KHFCW-NH2; also: ReO complex) | 36% | 11% | – | – | –
PL-1095 ([βAla]G[Lys(Z)]CW-NH2; also: ReO complex) | 8% | 3% | – | – | –
PL-808 (Ac-HWCW-NH2; also: ReO[V] metal complex) | – | – | 0% | −3% | –
PL-1655 (Ac-HFRCW-NH2; also: ReO[V] metal complex) | – | – | – | – | % Inhibition MC4-R (hMC4-R; [10]): 51%; % Inhibition MC1-R (B-16) [1, 10]: 45%
PL-847 (Ac-FHGCW-NH2; also: ReO[V] metal complex) | 6% | −6% | – | – | –
PL-810 (Ac-H[2Nal]CW-NH2; also: ReO[V] complex) | – | – | −1% | −2% | –
PL-844 (Ac-FGCW-NH2; also: ReO[V] metal complex) | 2% | 10% | – | – | –
